Results on one molecule are retold here after PMC3269305 (Journal of Molecular Biology, 2011).

In the assay the target is human eukaryotic translation initiation factor eIF4E (human, UniProt P06730 1-217). As to the kind of experiment: crystal structure.
human eukaryotic translation initiation factor eIF4E, sequence (P06730 whole entry): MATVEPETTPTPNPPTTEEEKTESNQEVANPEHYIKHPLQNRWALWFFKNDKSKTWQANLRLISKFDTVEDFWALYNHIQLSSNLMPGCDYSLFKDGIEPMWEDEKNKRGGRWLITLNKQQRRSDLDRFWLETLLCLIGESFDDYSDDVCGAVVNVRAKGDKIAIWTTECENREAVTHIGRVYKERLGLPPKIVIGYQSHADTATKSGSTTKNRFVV

As to PGGTRIIYDRKFLMECRNSP [4EBP1 peptide (eIF4E binding site of human 4EBP1, residues 47-66)], the binding result is given as “binds”.
